In the supplement of paper PMC10598134:
± gives the standard deviation.

Assay: collision cross section of modified peptide (TIMS, N2, iRT-aligned); higher = larger / more extended gas-phase ion
How it was run: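 Collision cross section was derived from the Mason-Schamp equation. Each value averages 1–3 technical replicates of the most abundant feature per charge state, measured on a timsTOF Pro/HT in dda-PASEF mode (nitrogen, ~2.4 mbar) after a 120-min nanoflow C18 gradient at 60 °C. Synthetic peptide pools (~100 fmol/µL in 2% acetonitrile/0.1% formic acid, iRT standard spiked 1:40) were identified with MaxQuant, and 1/K0 was calibrated with three reference ions and aligned run-wise to the median iRT peptide deviation.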

[1] = charge state: 2, modification: Malonyl
[2] = charge state: 2, modification: Crotonyl
[3] = charge state: 3, modification: Butyryl
[4] = charge state: 3, modification: Methyl (R)
[5] = charge state: 2, modification: Formyl
[6] = charge state: 2, modification: GlyGly (K)
[7] = charge state: 3, modification: GlyGly (K)
[8] = charge state: 2, modification: Glutarylation
[9] = charge state: 3, modification: Glutarylation
[10] = charge state: 2, modification: Butyryl
[11] = charge state: 2, modification: Hydroxyproline
[12] = charge state: 2, modification: Propionyl
[13] = charge state: 2, modification: Acetyl (K)
[14] = charge state: 3, modification: Malonyl
[15] = charge state: 2, modification: Dimethyl (K)
[16] = charge state: 3, modification: Dimethyl (K)
[17] = charge state: 2, modification: hydroxyisobutyryl
[18] = charge state: 2, modification: Biotin
[19] = charge state: 3, modification: Biotin
[20] = charge state: 2, modification: HexNAc (ST)
[21] = charge state: 2, modification: Nitro (Y)
[22] = charge state: 3, modification: Crotonyl
[23] = charge state: 2, modification: Succinyl
[24] = charge state: 3, modification: Succinyl
[25] = charge state: 2, modification: Methyl (K)
[26] = charge state: 3, modification: Methyl (K)
[27] = charge state: 3, modification: Nitro (Y)

Sequence: VFIGNLNTLVVKK [_VFIGNLNTLVVK(Malonyl)K_]
- collision cross section [1]: 419.59 ± 0.57 Å²

Sequence: VDVEVPDVSLEGPEGKLK [_VDVEVPDVSLEGPEGK(Crotonyl)LK_]
- collision cross section [2]: 469.01 ± 1.1 Å²

Sequence: SPPLPEHQKIPCNSAEPK [_SPPLPEHQK(Butyryl)IPCNSAEPK_]
- collision cross section [3]: 542.36 ± 2 Å²

Sequence: GGFQNRGGGSGGGGNYR [_GGFQNR(Methyl (R))GGGSGGGGNYR_]
- collision cross section [4]: 475.78 ± 6.5 Å²

Sequence: PGTPAGYGRGR [_PGTPAGYGR(Citrullination (R))GR_]
- collision cross section (charge state: 2, modification: Citrullination (R)): 345.81 ± 4.8 Å²
- collision cross section (charge state: 3, modification: Citrullination (R)): 431.14 Å²

Sequence: SSFAYKDQNENR [_SSFAYK(Formyl)DQNENR_]
- collision cross section [5]: 394.76 ± 0.75 Å²

Sequence: YIEIYVQKVNPSR [_YIEIYVQK(GlyGly (K))VNPSR_]
- collision cross section [6]: 453.07 ± 1.4 Å²
- collision cross section [7]: 515.19 ± 0.35 Å²

Sequence: GETASKLQSEISR [_GETASK(Gluratylation)LQSEISR_]
- collision cross section [8]: 403.5 ± 0.6 Å²
- collision cross section [9]: 470.57 Å²

Sequence: DAEAAEATAEGALKAEK [_DAEAAEATAEGALK(Butyryl)AEK_]
- collision cross section [10]: 461.9 ± 22 Å²
- collision cross section [3]: 544.71 ± 2 Å²

Sequence: DSINFLDHINGKK [_DSINFLDHINGK(Butyryl)K_]
- collision cross section [3]: 471.81 Å²

Sequence: GEAGPTGPQGEPGVR [_GEAGPTGPQGEP(Hydroxyproline)GVR_]
- collision cross section [11]: 382.58 ± 0.36 Å²

Sequence: GRGYFEHR [_GR(Methyl (R))GYFEHR_]
- collision cross section (charge state: 2, modification: Methyl (R)): 342.05 Å²
- collision cross section [4]: 410.57 ± 5.9 Å²

Sequence: ASDTSSETVFGKR [_ASDTSSETVFGK(Propionyl)R_]
- collision cross section [12]: 398.28 ± 0.65 Å²
- collision cross section (charge state: 3, modification: Propionyl): 481.99 Å²

Sequence: ATVASSTQKFQDLGVK [_ATVASSTQK(Gluratylation)FQDLGVK_]
- collision cross section [8]: 449.16 ± 1.1 Å²
- collision cross section [9]: 497.84 ± 1.7 Å²

Sequence: SPDEAYAIAKK [_SPDEAYAIAK(Butyryl)K_]
- collision cross section [10]: 376.59 ± 1.2 Å²
- collision cross section [3]: 446.36 ± 0.47 Å²

Sequence: ASEALLKQLK [_ASEALLK(Acetyl (K))QLK_]
- collision cross section [13]: 373.11 ± 0.4 Å²

Sequence: DHLSDKESK [_DHLSDK(Malonyl)ESK_]
- collision cross section [1]: 349.37 ± 0.029 Å²
- collision cross section [14]: 411.48 Å²

Sequence: ASDTSSETVFGKR [_ASDTSSETVFGK(Dimethyl (K))R_]
- collision cross section [15]: 409.3 ± 1.1 Å²
- collision cross section [16]: 469.84 ± 1.6 Å²

Sequence: DDSFLGKLGGTLAR [_DDSFLGK(Butyryl)LGGTLAR_]
- collision cross section [10]: 417.41 ± 0.39 Å²
- collision cross section [3]: 492.3 ± 2.4 Å²

Sequence: TTEETSKPK [_TTEETSK(Crotonyl)PK_]
- collision cross section [2]: 346.33 ± 11 Å²

Sequence: LEKTIDDLEEK [_LEK(Acetyl (K))TIDDLEEK_]
- collision cross section [13]: 403.37 ± 1 Å²

Sequence: VNALKNLQVK [_VNALK(Crotonyl)NLQVK_]
- collision cross section [2]: 376.57 ± 0.8 Å²

Sequence: PANEKATDDYHYEK [_PANEK(Butyryl)ATDDYHYEK_]
- collision cross section [10]: 443.05 ± 0.53 Å²
- collision cross section [3]: 509.24 ± 1.8 Å²

Sequence: GDNGSVGEPGPK [_GDNGSVGEP(Hydroxyproline)GPK_]
- collision cross section [11]: 344.87 ± 1.1 Å²

Sequence: VGVEVPDVNIEGPEGKLK [_VGVEVPDVNIEGPEGK(hydroxyisobutyryl)LK_]
- collision cross section [17]: 459.37 ± 1.3 Å²

Sequence: VGEFSGANKEK [_VGEFSGANK(GlyGly (K))EK_]
- collision cross section [6]: 372.84 ± 0.89 Å²
- collision cross section [7]: 452.89 ± 1.5 Å²

Sequence: LTSLNVKYNNDK [_LTSLNVK(Acetyl (K))YNNDK_]
- collision cross section [13]: 407.77 ± 1 Å²

Sequence: DYQPGITFIVVQK [_DYQP(Hydroxyproline)GITFIVVQK_]
- collision cross section [11]: 402.94 ± 0.79 Å²
- collision cross section (charge state: 3, modification: Hydroxyproline): 487.91 Å²

Sequence: LEEVTGKLQVAR [_LEEVTGK(Biotin)LQVAR_]
- collision cross section [18]: 414.01 ± 0.23 Å²
- collision cross section [19]: 494.02 ± 0.34 Å²

Sequence: KITESVAETAQTIK [_KITESVAETAQT(HexNAc (ST))IK_]
- collision cross section [20]: 451.91 ± 0.56 Å²
- collision cross section (charge state: 3, modification: HexNAc (ST)): 504.11 ± 1.1 Å²

Sequence: DASTLQSQKAEGTGDAK [_DASTLQSQK(Biotin)AEGTGDAK_]
- collision cross section [18]: 450.36 ± 0.63 Å²
- collision cross section [19]: 520.24 ± 1.3 Å²

Sequence: ALYETELADAR [_ALY(Nitro (Y))ETELADAR_]
- collision cross section [21]: 387.94 ± 0.55 Å²

Sequence: VFSIISSEKELK [_VFSIISSEK(Gluratylation)ELK_]
- collision cross section [8]: 415.44 ± 1.1 Å²

Sequence: KYEEIDNAPEER [_K(Dimethyl (K))YEEIDNAPEER_]
- collision cross section [15]: 402.53 ± 1.1 Å²
- collision cross section [16]: 484.37 ± 1.6 Å²

Sequence: SLEEEGAAHSGKR [_SLEEEGAAHSGK(Crotonyl)R_]
- collision cross section [2]: 420.35 ± 1.1 Å²
- collision cross section [22]: 486.66 ± 11 Å²

Sequence: VLDSGAPIKIPVGPETLGR [_VLDSGAPIK(Butyryl)IPVGPETLGR_]
- collision cross section [10]: 472.51 ± 0.49 Å²
- collision cross section [3]: 512.04 ± 1.8 Å²

Sequence: SEASSEFAKK [_SEASSEFAK(Butyryl)K_]
- collision cross section [10]: 356.58 ± 1.8 Å²

Sequence: LLFSNTAAQKLR [_LLFSNTAAQK(Gluratylation)LR_]
- collision cross section [8]: 406.85 ± 0.6 Å²
- collision cross section [9]: 487.13 ± 1.7 Å²

Sequence: IHVQSSSDSSDEPAEKR [_IHVQSSSDSSDEPAEK(Succinyl)R_]
- collision cross section [23]: 452.62 ± 0.81 Å²
- collision cross section [24]: 507.09 ± 1.9 Å²

Sequence: VGEFSGANKEK [_VGEFSGANK(Formyl)EK_]
- collision cross section [5]: 358.59 ± 1.4 Å²

Sequence: VNVEAPDVNLEGLGGKLK [_VNVEAPDVNLEGLGGK(Methyl (K))LK_]
- collision cross section [25]: 464.13 ± 2.6 Å²
- collision cross section [26]: 541.64 ± 0.51 Å²

Sequence: SLGEPAAGEGSAKR [_SLGEPAAGEGSAK(Succinyl)R_]
- collision cross section [23]: 381.88 ± 0.8 Å²
- collision cross section [24]: 476.57 ± 0.7 Å²

Sequence: SEASSEFAKK [_SEASSEFAK(hydroxyisobutyryl)K_]
- collision cross section [17]: 356.42 ± 0.78 Å²

Sequence: KFGVLSDNFK [_K(Methyl (K))FGVLSDNFK_]
- collision cross section [25]: 372.37 ± 0.47 Å²
- collision cross section [26]: 448.39 ± 4.9 Å²

Sequence: VELCSFSGYK [_VELCSFSGY(Nitro (Y))K_]
- collision cross section [21]: 364.52 ± 0.72 Å²

Sequence: SPDEAYAIAKK [_SPDEAYAIAK(GlyGly (K))K_]
- collision cross section [6]: 383.65 ± 0.88 Å²
- collision cross section [7]: 448.77 ± 3 Å²

Sequence: TPNLYIYSKK [_TPNLYIYSK(Propionyl)K_]
- collision cross section [12]: 384.03 Å²

Sequence: LTSLNVKYNNDK [_LTSLNVK(GlyGly (K))YNNDK_]
- collision cross section [6]: 424.54 ± 1.4 Å²
- collision cross section [7]: 491.6 ± 1.1 Å²

Sequence: LAEQEAHYAVR [_LAEQEAHY(Nitro (Y))AVR_]
- collision cross section [21]: 388.92 ± 0.55 Å²
- collision cross section [27]: 469.49 ± 1.9 Å²

Sequence: LLFSNTAAQKLR [_LLFSNTAAQK(Succinyl)LR_]
- collision cross section [23]: 404.93 ± 0.55 Å²
- collision cross section [24]: 482.98 ± 3.3 Å²

Sequence: LLEEEDSKLK [_LLEEEDSK(Acetyl (K))LK_]
- collision cross section [13]: 378.84 ± 0.45 Å²

Sequence: DYVSQFEGSALGK [_DY(Nitro (Y))VSQFEGSALGK_]
- collision cross section [21]: 387.16 ± 0.17 Å²

Sequence: LAEEENKAK [_LAEEENK(Methyl (K))AK_]
- collision cross section [25]: 347.67 ± 0.66 Å²
- collision cross section [26]: 422.11 Å²

Sequence: SLEEEGAAHSGKR [_SLEEEGAAHSGK(Dimethyl (K))R_]
- collision cross section [15]: 412.8 ± 3 Å²
- collision cross section [16]: 453.89 ± 1.2 Å²

Sequence: DSLGVSFPEELACK [_DSLGVS(HexNAc (ST))FPEELACK_]
- collision cross section [20]: 437.05 Å²

Sequence: LDEKENLSAK [_LDEK(Dimethyl (K))ENLSAK_]
- collision cross section [15]: 364.75 ± 0.28 Å²
- collision cross section [16]: 441.27 Å²

Sequence: VYSGHQGR [_VY(Nitro (Y))SGHQGR_]
- collision cross section [21]: 327.94 ± 0.59 Å²
- collision cross section [27]: 418.62 ± 1.2 Å²

Sequence: DAIHFYNKSLAEHR [_DAIHFYNK(Dimethyl (K))SLAEHR_]
- collision cross section [16]: 497.01 ± 1.6 Å²

Sequence: LEKTIDDLEEK [_LEK(Methyl (K))TIDDLEEK_]
- collision cross section [25]: 405.66 ± 1.3 Å²
- collision cross section [26]: 473.34 ± 3.6 Å²

Sequence: VPTTEKPTVTVNFR [_VPTTEK(Malonyl)PTVTVNFR_]
- collision cross section [1]: 427.18 ± 3.1 Å²
- collision cross section [14]: 511.14 ± 0.89 Å²

Sequence: VLTANSNPSSPSAAKR [_VLTANSNPSSPSAAK(Malonyl)R_]
- collision cross section [1]: 426.78 ± 1.6 Å²
- collision cross section [14]: 452.99 Å²

Sequence: VYPSSLSK [_VY(Phospho (Y))PSSLSK_]
- collision cross section (charge state: 2, modification: Phospho (Y)): 344.53 ± 0.066 Å²

Sequence: VYIASSSGSTAIKK [_VYIASSSGSTAIK(Crotonyl)K_]
- collision cross section [2]: 419.06 ± 0.81 Å²
- collision cross section [22]: 505.65 ± 0.46 Å²

Sequence: PSVSTKLISK [_PSVSTK(GlyGly (K))LISK_]
- collision cross section [6]: 370.29 ± 0.38 Å²
- collision cross section [7]: 434.33 ± 3 Å²

Sequence: LLEEEDSKLK [_LLEEEDSK(Formyl)LK_]
- collision cross section [5]: 374.12 ± 0.55 Å²

Sequence: DFDTALKHYDK [_DFDTALK(Methyl (K))HYDK_]
- collision cross section [25]: 393.99 Å²
- collision cross section [26]: 458.02 ± 4 Å²

Sequence: LEEVTGKLQVAR [_LEEVTGK(Trimethyl (K))LQVAR_]
- collision cross section (charge state: 2, modification: Trimethyl (K)): 402.01 ± 1.1 Å²
- collision cross section (charge state: 3, modification: Trimethyl (K)): 471.9 ± 1.5 Å²
